The results in this text go back to PMC5389675.

Assay in all cases: EMSA
Data set [1] deals with ETV4 FL K260ac (Homo sapiens, UniProt P43268 1-484).
Data set [2] has as its target ETV4 L430M (Homo sapiens, UniProt P43268 1-484, L430M).
In data set [3] the target is ETV4 FL E423K (Homo sapiens, UniProt P43268 1-484, E423K).
Data set [4] addresses ETV4 337-436 F428A/F432A (Homo sapiens, UniProt P43268 337-436, F428A;F432A).
Data set [5] concerns the target ETV4 FL E425K (Homo sapiens, UniProt P43268 1-484, E425K).
For data set [6], the target named is ETV4 337-436 E425K (Homo sapiens, UniProt P43268 337-436, E425K).
Data set [7] addresses ETV4 FL F428A/F432A (Homo sapiens, UniProt P43268 1-484, F428A;F432A).
The target of data set [8] is ETV4 337-436 E423K (Homo sapiens, UniProt P43268 337-436, E423K).
Data set [9] has as its target ETV4 FL L430A (Homo sapiens, UniProt P43268 1-484, L430A).
The target of data set [10] is ETV4 337-484 (Homo sapiens, UniProt P43268 337-484).
Chain of ETV4 337-484 (P43268 337-484): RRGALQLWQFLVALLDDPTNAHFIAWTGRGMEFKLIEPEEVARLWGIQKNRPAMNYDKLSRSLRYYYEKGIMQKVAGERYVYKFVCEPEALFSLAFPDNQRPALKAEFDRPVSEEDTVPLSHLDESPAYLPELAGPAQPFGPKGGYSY
Data set [11] concerns the target ETV4 FL K226ac (Homo sapiens, UniProt P43268 1-484).
The target in data set [12] is ETV4 FL I407A/L430A (Homo sapiens, UniProt P43268 1-484, I407A;L430A).
Chain of ETV4 FL I407A/L430A (P43268 whole entry I407A/L430A): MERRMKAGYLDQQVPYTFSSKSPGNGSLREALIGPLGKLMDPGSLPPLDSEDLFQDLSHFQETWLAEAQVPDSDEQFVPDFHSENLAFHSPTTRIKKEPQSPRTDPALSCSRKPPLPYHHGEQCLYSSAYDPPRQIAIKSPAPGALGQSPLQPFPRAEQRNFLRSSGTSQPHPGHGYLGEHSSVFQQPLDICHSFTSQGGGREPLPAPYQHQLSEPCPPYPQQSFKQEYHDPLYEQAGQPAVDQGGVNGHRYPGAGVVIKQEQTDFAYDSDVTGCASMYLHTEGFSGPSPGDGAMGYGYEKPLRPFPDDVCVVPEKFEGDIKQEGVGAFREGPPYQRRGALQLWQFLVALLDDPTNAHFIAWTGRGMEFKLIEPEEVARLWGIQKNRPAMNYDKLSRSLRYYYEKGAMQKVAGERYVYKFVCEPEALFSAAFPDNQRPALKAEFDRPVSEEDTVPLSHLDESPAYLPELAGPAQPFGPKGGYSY
Data set [13] deals with T1, ETV4 337-436 E404K (Homo sapiens, UniProt P43268 337-436, E404K).
T1 sequence: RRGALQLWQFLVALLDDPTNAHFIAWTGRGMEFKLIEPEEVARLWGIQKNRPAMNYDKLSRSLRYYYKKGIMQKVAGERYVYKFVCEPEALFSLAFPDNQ

Data set [14] deals with ETV4 FL E404K (Homo sapiens, UniProt P43268 1-484, E404K).
Chain of ETV4 FL E404K (P43268 whole entry E404K): as the sequence (P43268 whole entry I407A/L430A) above, with E404K, A407I, A430L counted along it

Chain of ETV4 L430M (P43268 whole entry L430M): as the sequence (P43268 whole entry I407A/L430A) above, with A407I, A430M counted along it
Chain of ETV4 FL L430A (P43268 whole entry L430A): as the sequence (P43268 whole entry I407A/L430A) above, with A407I counted along it
Chain of ETV4 FL F428A/F432A (P43268 whole entry F428A/F432A): as the sequence (P43268 whole entry I407A/L430A) above, with A407I, F428A, A430L, F432A counted along it
Chain of ETV4 FL E423K (P43268 whole entry E423K): as the sequence (P43268 whole entry I407A/L430A) above, with A407I, E423K, A430L counted along it
Chain of ETV4 FL E425K (P43268 whole entry E425K): as the sequence (P43268 whole entry I407A/L430A) above, with A407I, E425K, A430L counted along it
Chain of ETV4 FL K260ac (P43268 whole entry): as the sequence (P43268 whole entry I407A/L430A) above, with A407I, A430L counted along it
Chain of ETV4 FL K226ac (P43268 whole entry): as the sequence (P43268 whole entry I407A/L430A) above, with A407I, A430L counted along it

B1: 27-mer consensus ETS duplex (dsDNA)
DNA 1: TCGACGGCCAAGCCGGAAGTGAGTGCC
DNA 2: TCGAGGCACTCACTTCCGGCTTGGCCG
With B1, the Kd in data set [1] was 0.51 ± 0.03 nM; in data set [10] it was 0.11 ± 0.02 nM; in [11] it was 0.3 ± 0.06 nM. For the same molecule, the binding result in [2], in [3], in data set [4], in [5], in data set [6] and in data set [7] was “binds” throughout. For the same molecule, the binding result in [8], in data set [9], in data set [12], in [13] and in data set [14] was “binds” in each case.

Usually Kd stands for the free concentration of one partner at which half of the binding sites on the other are occupied at equilibrium, for simple one-to-one binding. Lower therefore signals higher affinity.
